In the DeepSol protein solubility set:

test: soluble on expression in E. coli; label from the status in PepcDB or PDB records

| Sequence | soluble on expression in E. coli |
| --- | --- |
| MQIAREETRKSGANILYVINHQRPSIFGSSMHQIGGLMLLSDSVVRNEGEGYPDSLLYDSGQRGKIGSRIKAPVHDLSFHFGPSTITNRTKGLSYSEQQLEKKLSNGLSFVLQYKCHPKGNLYGFGLIASRYEADITKKIEYQGIGFANRLDYIAPLFSMSTALSERWFLGMSFGKDGSQSVRLHYRFARLPVDRDLSAVGCVRKKSPHTDDCRLTVSPLYRPS | not soluble |
| MAFHWQSKVNVQHVGVDDMVLLPKLTEQSIVENLKKRLQANSIFTYIGPVLISVNPFKQMPYFTEKEMLLYQGAAQYENAPHIYALADNMYRNMLIDNESQCVIISGESGAGKTVNAKFIMNYISRISGGGQKVQHIKDVILQSNPLLEAFGNSATVRNWNSSRFGKYVEIVFSRGGEPIGGKLSNFLLEKSRVVHQNEGDRNFHVFYQLCAGADKNLRSTFGIGELQYYNYLNMSGVFKADDTDDGKEFESTLHAMKVVGVNDQDQLEVLRIVATVLHIGNITFTEENNFAAVSGKDYLEYPAFLLGLTSADIEAKLTGRKMESKWGTQKEEIDMKLNVEQASYTRDAWVKAIYARLFDYLVKKVNDAMNITSQSTSDNFSVGILDIYGFEIFNNNGFEQFCINFVNEKLQQIFIELTLKAEQEEYVREGIKWTEIDYFDNKIVCDLIETKRPPGIMSLLDDTCAQNHGQREGVDRQLLTTLSKSFAGHPHFGPGSDSFVIKHYAGDVTYNVDGFCDRNRDVLYPDLILLMQKSSRPFIQALFPENVAASAGKRPTTFSTKIRTQANTLVESLMKCSPHYVRCIKPNETKRPNDWEESRVKHQVEYLGLRENIRVRRAGFAYRRAFDKFAQRYAIVSPQTWPCFQGDQQRACEIICDSVHMEKNQYQMGKTKIFVKNPESLFLLEETRERKFDGYARVIQKAWRQFSARKQHIKQKEQAADLMYGKKERRRYSLNRNFVGDYIGLEHHPTLQSLVGKRQRVLFACTANKYDRKFRVTKLDLLLTVNHLTLIGKEKVKNGPEKGKIVEVIKRQFDLPQIKSIGLSPYQDDFVILYLGNDDYSSLLETPFKTEFCTALSKAYKERTNGTLHLDFRSSHVVSYKKMKFDFSDGKRTVQFGNDGTSSAEKTLKPNGKVLNVSIGTGLPNTTRPSTERPQGGYTPRRDQLRTSTRRTKQNNQSYGQNGQSQAMRAPVPAHGMNNNYNQTPAPVSTNHQYSQEPARIPVMGNVINQLNNMNLSGNGNSPAGRGPPPARGPKPPPPAKPKLNPVVIAVYPYEAQDVDELSFEAGAEIELMNKDASGWWQGKVNNRVGLFPGNYVKE | not soluble |
| MSLFFDKVIRLNIGGKRFDTHKSTLMKFDGYFKKFLQTPGSSLVDPIFVDRSPTYFDIVLNFMRKGRADLPETLKDLKMLLGEAEYYELTELCDDCKREISRLDIGIESEPFYEIIPEPSVVARNNNNTIPNNVVEVGS | soluble |
| MGSSHHHHHHGGTGENLYFQGGSGNRIDISNFDFLYVIGKGTYGIVYKALDKKENNFVAIKKIINLCDENYGISKCILRELTILQKIKHKNIINLKYVFYGKDIEDKLKGENLENSCLYLAFEYCDIDLFNLIKKHNLNIKEIKYIIFELLLALSYFHSNNYIHRDIKPENIFITSEGEIKLGDLGMSVEKSDHMTPTVVTLWYRAPEILLKSTNYDQKVDIWSLGCLFMELIQGRPLFPGKNDCTQLELIYLLLGDKDKLTTVDKERKDMFPYFEINMLKDAIDDEHTLDLISKMLIYDPNYRISSKEALKHPCFQDIEQVKFSYNF | not soluble |
| DSDDRVTPPAEPLDRMPDPYRPSYGRAETVVNNYIRKWQQVYSHRDGRKQQMTEEQREWLSYGCVGVTWVNSGQYPTNRLAFASFDEDRFKNELKNGRPRSGETRAEFEGRVAKESFDEEKGFQRAREVASVMNRALENAHDESAYLDNLKKELANGNDALRNEDARSPFYSALRNTPSFKERNGGNHDPSRMKAVIYSKHFWSGQDRSSSADKRKYGDPDAFRPAPGTGLVDMSRDRNIPRSPTSPGEGFVNFDYGWFGAQTEADADKTVWTHGNHYHAPNGSLGAMHVYESKFRNWSEGYSDFDRGAYVITFIPKSWNTAPDKVKQGWP | soluble |
| MKQFDKHADAYNVVRGKIAYPDSLYRNLAERAPAREAALDIGCGNGVSTVRLQPWFRYVEGSDLGEALIAKARENYPEIRFSVSPAETFAPQRRFDLVTSATSFYWMDRKQVLTRMADWLTPGGLFCAYKYDFPIAYGPLRDFIEHELVNKWAKHRDPRLTRYDDTLEIMGSCPHLRDCRREVFANIIFLSPEEVALFFLSTSYVTRYIEQEGGEDYADRFIAAVREIESAPQVAVNFDIHAFTALNR | not soluble |
| GPGSMSSKAALLAVLAGSGQEHLVDDYDALSPSEQTTLATQILSYTNAQWKHMNVILRDSLRLLNLSNAAAGTGGGDAATAAPNITPPPADTIINVPALLAKRPSELAAIRAAGMRVVASGEGAVLLMAGGSGTRLGMTIPKGMVECDKLVSGRSLFAYHCQRIRKMERMAAAAAASLSQPSAVAAAGAAPVPPGAGRGTMPLLVTTSDQNDTATRQFFHDHDFFGLLPNQVFFSRQSSLPCYDEATGRVLMQARGSICLAPGGNAGVYESLAKASATTSGSQSVLAQIEARGVRYVQIVSVDNILARVGDPYFFGVAASYQAEVVLKTVPKVSAAEKVGVVAQVDGEWAVVEYTEIGDRRSAETDPATGELAFNCGSIASHCCSLDFLALAATYMETSTFYHAARKTIPTINGPAPAIKLEAFIFDVFRYAKDVPSRAERAKKAPLPDALQILQVDRSMEFAPIKNADGAAADTPTTAAQLLLDLHTRWVTEAIEAAPGTYAVASTSTSAMYTALERATALQRLRDGQCCWEISPLVSYEGEGLAAYVGQLIHRSATGSGVLGLEEATAGTANM | soluble |
| MPKRAVSFADDIETRVFKRDKREIEDGILDIPMEEDVVKERPGNADEDEEEKKKFHTLESDEEEEEDHKRLDTRRVEGQEDCGVDFDGSIKITAFNMKEDEEEGHFDETGNFIFDKKTKDVQDAWLDGIDWSLVKKKAGDQWEGDEDKKSLEDEEPEPITMSDARKKEIFEQLVNLLKPNQTVAKALSELKKKKGLSAAEERKLRWAAKKAGKSFEPTDGQKETSQLSGLADELISAGIMDAYEWHREKFNFQLQKMISTAADELDMFSDEPTSTGAARAAGAPMEQEEEEADDSVKWEYKANEEAKIEVEYEKTDDFGEIRVNKIGPIPTSEMMDRQSKGLLSAEGVARRSGTNGHFNPVARIDFELYL | soluble |
| FTEYGAEYKIEVGILKDVVTLTLDTSGEGLHKRGYRENSGGAPIKETLAAAMVLLSDWNPDIELADPMCGSGTIAIEAALIGKNIAPGLKRRFVSEEWDIIPKDLWSDLRKHARNSINDKEFNILCSDIDGWVIKTARANAKKAGVDKYISFQKLPMQDFSSKRKGGFIITNPPYGERLGEVKEVEKLYKDMGRVFKALDKWSYFIITAHEKFEDCFGRKSNKNRKLYNGKLKCYYYQYFGDRK | not soluble |
| MSALKWTNIGATSGAKSCQRWLFYAYDRIRRTVVPHVFGERTLATLERLLSLLSAFEVVVWMTDGWPLYESRLKGKLHVISKRYTQRIERHNLNLRQHLARLGRKLLSFSKSVELHDKVIGHYLNIKHYQLEHHHHHH | not soluble |
| MGSDKIHHHHHHMNSVVNFRDIGGFPTQQGTVVKTGYFFRSGELVNVAQADQQKLVEDYQIKRIYDFRSAAETQERPDDSIQGTNYLHIDILADIQAQTASLEGMLKTVGSPDEAMDMAYKEMVLSNSGRKGYQTFFENFLSYPQEAILFHCFAGKDRTGIGAALILSALGVEHSYILEDYLKTNEQRKTANEQIIAQYQANGTPLAEIQQLETLLYVKKEYLATALQAIEKEFGSVEGYLKEGLGLPLSAKKDMLSLYTKS | not soluble |
| NALPAGNYLVASPQRYNPPGVLDSQTELPRLLAQARREVRVQLLDYAPLSYGPDKTRPYYAVIDNAIRSAAARGVSIKLMVSDWNTGMPEVAYLKSLALVPNVQVRIVTLPVAAEGFIPYARVIHSKTMDIDDQVAWVGTSNWLGGYLDNSRNLEVVMHDSTMAKRIGVLHEQLWDGPYAKPIDINRDYPEPH | not soluble |
| MVRVDQNLFNEVMYLLDELSQDITVPKNVRKVAQDSKAKLSQENESLDLRCATVLSMLDEMANDPNVPAHGRTDLYTIISKLEALSKS | not soluble |
| MKTWLTTLILSLSTLGLAHADVATTQQNLKKNFPEIPVSAVNTTPVKGVYEVITEGQIVYTNDDAQYFFVGNLVDPKNQRNLTAERMQQLNKIDVSTLPLNQAIKHVKGNGKRTLYIFSDPDCPYCQRLEKELTAVDNVTIYLFLFPLTTLHPNAETIATQIWCSKNQYQAWQDYLLNHKAPTASQKCSTPIQKNLALGQKLNINGTPTMYLKNGERIAGAMQAGQLNTLLDQAQ | not soluble |
| MTLHELLEKPVWKMTGEELLFLAQQGSTQQEGDTQDKAPAKEERHFVYGLSGLARLFGCSLPTANRIKQSGKIDRAITQIGRKIIIDADLALELAGRKVGGRR | not soluble |
| MGHHHHHHSHTQDKNYEDELTQVALALVEDVINYAVKIVEEERNPLKNIKWMTHGEFTVEKGLKQIDEYFSKCVSKKCWAHGVEFVERKDLIHSFLYIYYVHWSISTADLPVARISAGTYFTMKVSKTKPPDAPIVVSYVGDHQALVHRPGMVRFRENWQKNLTDAKYSFMESFPFLFNRV | not soluble |
| MGSSHHHHHHSSGLVPRGSHQPALAAEPAQLRIGYQKAVSSLVLAKQHRLLEQRFPRTKITWVEFPAGPQLLEALNVGSIDLGGAGDIPPLFAQAAGADLLYVGWVPPTPKAETILVPSKSALRTVADLKGKRIAFQKGSSAHNLLLRVLAKSGLSMRDITPLYLSPANARAAFAAGQVDAWAIWDPWYSALTLDGSARLLANGEGLGLTGGFFLSSRRYATAWGPFVQQVMGTLNQADGLLERDRAGSIKTLAQVSGLPPAVVERTLAHRPPASVQPLSAQVIKAQQATADLFYAQRLLPKRVLVAPAVWRAPDAGTAQAVSK | soluble |
| MPTNNAPQVAINDIGSAEDFLAAIDATIKYFNDGDIVEGTVVKVDRDEVLLDIGYKTEGVIPSRELSIKHDVDPDEVVEVGDQIDALVLTKEDKEGRLILSKKRAQYERAWGAIEELKEKDEPVTGTVIEVVKGGLIIDIGLRGFLPASLVEMRRVRDLDPYIGQELEAKIIELDKNRNNVVLSRRAFLEQTQSEVRSEFLHQLQKGQVRKGVVSSIVNFGAFVDLGGVDGLVHVSELSWKHIDHPSEVVTVGDEVTVEVLEVDLDRERVSLSLKATQEDPWRVFARTHAVGQIVPGKVTKLVPFGAFVRVEEGIEGLVHISELAQRHVEVPDQVVAVGEEVMVKVIDIDLERRRISLSLKQADEDYTEEFDPSKYGMADSYDEQGNYIFPEGFDAETNEWLEGFDEQRQAWEARYAESERRFTAHTAQIERRRQQAEEAAAEAPAGNYSTDSAEDAPAAEAVEESAGSLASDEQLAALREKLAGNLEHHHHHH | soluble |
| MAHHHHHHMNTNGRSAYDMLARMSDEEDDDVPEDLELTFVPASKRREPASSHAVGHHAGNAVPSTLNSPTHSGPAVINPKPRAETVYEQERNAKVRQVLAEQQKTALGVVFSLDAFEAPSPGRYTLAGLQEATGTPAPSCSSAPYNREDQRRGFSQYRGRGGAEGGGRGGPGGGGGPRRYRMPNPNMSGEEQARYIRHRRNMAVIRNALREVDPETLEYMQVTQAPDQLPLNRNCEGFSKPYFSTDRGRGGVDAGGGRSTSSYRGRGGGGGMHGRGGRGFSPYSVGRGTGATRGDGLGRGAGGGCGRSAPFSPYS | not soluble |
